Sequences and labels used below:
B1: Bovine adenosine deaminase (ADA) (enzyme, UniProt P56658 2-363, looked up)
chain: AQTPAFNKPKVELHVHLDGAIKPETILYYGRKRGIALPADTPEELQNIIGMDKPLSLPEFLAKFDYYMPAIAGCREAVKRIAYEFVEMKAKDGVVYVEVRYSPHLLANSKVEPIPWNQAEGDLTPDEVVSLVNQGLQEGERDFGVKVRSILCCMRHQPSWSSEVVELCKKYREQTVVAIDLAGDETIEGSSLFPGHVKAYAEAVKSGVHRTVHAGEVGSANVVKEAVDTLKTERLGHGYHTLEDATLYNRLRQENMHFEVCPWSSYLTGAWKPDTEHPVVRFKNDQVNYSLNTDDPLIFKSTLDTDYQMTKNEMGFTEEEFKRLNINAAKSSFLPEDEKKELLDLLYKAYGMPSPASAEQCL
modifications: coupled to CNBr-activated Sepharose 4B (affinity column)
B2: DPP-IV H750E mutant (enzyme, human, UniProt P27487 39-766, looked up)
chain: SRKTYTLTDYLKNTYRLKLYSLRWISDHEYLYKQENNILVFNAEYGNSSVFLENSTFDEFGHSINDYSISPDGQFILLEYNYVKQWRHSYTASYDIYDLNKRQLITEERIPNNTQWVTWSPVGHKLAYVWNNDIYVKIEPNLPSYRITWTGKEDIIYNGITDWVYEEEVFSAYSALWWSPNGTFLAYAQFNDTEVPLIEYSFYSDESLQYPKTVRVPYPKAGAVNPTVKFFVVNTDSLSSVTNATSIQITAPASMLIGDHYLCDVTWATQERISLQWLRRIQNYSVMDICDYDESSGRWNCLVARQHIEMSTTGWVGRFRPSEPHFTLDGNSFYKIISNEEGYRHICYFQIDKKDCTFITKGTWEVIGIEALTSDYLYYISNEYKGMPGGRNLYKIQLSDYTKVTCLSCELNPERCQYYSVSFSKEAKYYQLRCSGPGLPLYTLHSSVNDKGLRVLEDNSALDKMLQNVQMPSKKLDFIILNETKFWYQMILPPHFDKSKKYPLLLDVYAGPCSQKADTVFRLNWATYLASTENIIVASFDGRGSGYQGDKIMHAINRRLGTFEVEDQIEAARQFSKMGFVDNKRIAIWGWSYGGYVTSMVLGSGSGVFKCGIAVAPVSRWEYYDSVYTERYMGLPTPEDNLDHYRNSTVMSRAENFKQVEYLLIHGTADDNVHFQQSAQISKALVDVGVDFQAMWYTDEDHGIASSTAHQEIYTHMSHFIKQCFSLP
notes: range 39-766; Monomeric by AUC
B3: DPP-IV V724A mutant (enzyme, human, UniProt P27487 39-766, looked up)
chain: B2 chain with V686A, E712H
notes: Mixture of monomers and dimers
B4: DPP-IV F713R mutant (enzyme, human, UniProt P27487 39-766, looked up)
chain: B2 chain with F675R, E712H
B5: DPP-IV F730A mutant (enzyme, human, UniProt P27487 39-766, looked up)
chain: B2 chain with F692A, E712H
notes: as for B3
B6: DPP-IV Y735A mutant (enzyme, human, UniProt P27487 39-766, looked up)
chain: B2 chain with Y697A, E712H
notes: Monomer by AUC
B7: DPP-IV Y248A mutant (enzyme, human, UniProt P27487 39-766, looked up)
chain: B2 chain with Y210A, E712H
notes: Monomer by AUC
B8: DPP-IV F713A mutant (enzyme, human, UniProt P27487 39-766, looked up)
chain: B2 chain with F675A, E712H
B9: DPP-IV W734A mutant (enzyme, human, UniProt P27487 39-766, looked up)
chain: B2 chain with W696A, E712H
notes: Monomer by AUC

Numbering of substitutions follows the chain as printed. In names and notes the source's numbering stands.

Data set [1] deals with B2. The data set is described as follows: ADA affinity column purification.
Data set [2] deals with T1, DPP-IV H750A mutant (human, UniProt P27487 39-766).
T1 construct: range 39-766; also called H750A dimer; H750A monomer
Kind of data set: ADA affinity column purification.

Data set [3] concerns the molecule itself. Kind of data set: velocity AUC in PBS (self-association).
Data set [4] concerns the molecule itself. The data set is described as follows: dimer form listed in the table of kinetic constants (self-association).
Data set [5] deals with the molecule itself. The data set is described as follows: AUC (self-association).

As to B1, the binding result in data set [1] and in data set [2] was “binds” throughout. Regarding B2, in data set [3], the binding result is recorded as “no binding (tested: 0.1 to 0.2 mg/ml (1.2 uM to 2.3 uM))”. Turning to B3, the binding result in data set [4] is given as “binds”.

On to B4, for which, in data set [5], the binding result is recorded as “no binding”.

As for B5, the binding result in data set [4] is “binds”. Take B6: the binding result in data set [5] was “no binding”. Still for that read-out and setting: the value for B7 was “no binding”; that for B8 was “no binding”. Still for that read-out and setting: to B9 belongs “no binding”.

The values above are taken from patent US20060024313A1 (published 2006).
